Legend:
[1] = target: Matrix Metalloproteinase-9 (MMP-9), wild type (Homo sapiens (Human), UniProt P14780 20-707); test: cell-based or functional assay
[2] = target: T1, MMP-9 with a carboxy-terminal Myc tag (MMP-9/Myc) (Homo sapiens (Human), UniProt P14780 20-707); test: co-immunoprecipitation, co-transfected COS-1 cells
T1 construct: Expressed from cDNA in COS-1 cells and secreted as proMMP-9; also called Myc-tagged MMP-9; proMMP-9/Myc; not shown: C-terminal Myc tag from the pcDNA3.1-myc vector
Description: FIG. 4. Blade IV of the PEX domain of proMMP-9 is required for homodimerization and cell migration. (A) Ribbon diagram of MMP-9 PEX domain (PDB:1ITV). Each outermost β-strand from the four blades was swapped with the corresponding MMP-2 PEX domain sequences (upper panel). Lower panel: Schematic diagram of substitution mutations at the outermost 3-strands of four blade of MMP-9 by corresponding MMP-2 sequences. […] The conditioned medium was also examined by gelatin zymography (lower panel). […] (P-values reflect comparison with MMP-9 transfected cells: *P<0.05). (D) A peptide mimicking MMP-9 IVS4 abrogates MMP-9 dimerization examined by co-immunoprecipitation (upper panel). Total cell lysate (20 μg) was also examined by an immunoblotting assay using anti-HA antibody (lower panel). (E) Dose dependent inhibition of MMP-9-mediated cell migration by IVS4 peptides. No effect was found using scrambled peptides. COS-1 cells transfected with an empty vector or MMP-9 cDNAs were examined by a transwell chamber migration assay for 6 hours in the presence of DMSO control, specific and scramble peptides at different concentration. Each data point was performed in triplicate and the experiments was repeated three times (*P<0.05).
Each blade contains four anti-parallel […]-strands with peptide loops linking one strand to the next as illustrated in FIG. 1B. […]

IC50 (potency; inhibition of MMP-9-induced cell migration, transwell assay) [1] [µM] | binding result [2] | Binder
50 | – | NQVDQVGY [IVS4 peptide (NQVDQVGY)]
– | no binding | MMP-9/IVS4 chimera (MMP-9 with the outermost β-strand of blade IV of the PEX domain, NQVDQVGY, replaced by MMP-2 KSVKFGS) (enzyme, also called MMP-9/Blade IV; MMP-9/blade IV mutant) APRQRQSTLVLFPGDLRTNLTDRQLAEEYLYRYGYTRVAEMRGESKSLGPALLLLQKQLSLPETGELDSATLKAMRTPRCGVPDLGRFQTFEGDLKWHHHNITYWIQNYSEDLPRAVIDDAFARAFALWSAVTPLTFTRVYSRDADIVIQFGVAEHGDGYPFDGKDGLLAHAFPPGPGIQGDAHFDDDELWSLGKGVVVPTRFGNADGAACHFPFIFEGRSYSACTTDGRSDGLPWCSTTANYDTDDRFGFCPSERLYTQDGNADGKPCQFPFIFQGQSYSACTTDGRSDGYRWCATTANYDRDKLFGFCPTRADSTVMGGNSAGELCVFPFTFLGKEYSTCTSEGRGDGRLWCATTSNFDSDKKWGFCPDQGYSLFLVAAHEFGHALGLDHSSVPEALMYPMYRFTEGPPLHKDDVNGIRHLYGPRPEPEPRPPTTTTPQPTAPPTVCPTGPPTVHPSERPTAGPTGPPSAGPTGPPTAGPSTATTVPLSPVDDACNVNIFDAIAEIGNQLYLFKDGKYWRFSEGRGSRPQGPFLIADKWPALPRKLDSVFEERLSKKLFFFSGRQVWVYTGASVLGPRRLDKLGLGADVAQVTGALRSGRGKMLLFSGRRLWRFDVKAQMVDPRSASEVDRMFPGVPLDTHDVFQYREKAYFCQDRFYWRVSSRSELKSVKFGSVTYDILQCPED
12 | – | SRPQGPFL [IS4 peptide (SRPQGPFL)]

Reference: patent US20130012451A1 (RESEARCH FOUNDATION OF STATE UNIVERSITY OF NEW YORK, published 2013)
